{"source": "patent US11028159B2", "about": "(priority 2017, dated 2021)", "test_system": "venoms of different snake species", "assay_type": "binding"}
{"molecule": "VHH candidate against cobrotoxin: camelid (llama) single-domain VHH antibody binding cobrotoxin, SEQ ID NO 4 (protein) VHH: MAQVQLQESGGGLAQAGGSLRLSCSASRNIFRVYGWYRQAPGKQREWVASITRDDSTAYADSVKGRFTISRDSAKNTMYLQMSSLRLEDTSTYYCAAQSISGTIQWGQGTQVTVSSTSGPGGQHHHHHHGAEQKLISEEDLS", "values": [{"measurement": "number of venoms of different snake species bound (ELISA)", "result": "at least 6"}]}
